Test results reported in US20240209081A1 (GENOME, published 2024).

What was measured:
human CNTN4-10×His [1] = target: T1, human CNTN4-10×His (human, UniProt Q8IWV2 19-1000); experiment: ELISA, plate coated with 20 nM antigen, HRP anti-human kappa detection
T1 construct: also called CNTN-4 protein
T1 sequence: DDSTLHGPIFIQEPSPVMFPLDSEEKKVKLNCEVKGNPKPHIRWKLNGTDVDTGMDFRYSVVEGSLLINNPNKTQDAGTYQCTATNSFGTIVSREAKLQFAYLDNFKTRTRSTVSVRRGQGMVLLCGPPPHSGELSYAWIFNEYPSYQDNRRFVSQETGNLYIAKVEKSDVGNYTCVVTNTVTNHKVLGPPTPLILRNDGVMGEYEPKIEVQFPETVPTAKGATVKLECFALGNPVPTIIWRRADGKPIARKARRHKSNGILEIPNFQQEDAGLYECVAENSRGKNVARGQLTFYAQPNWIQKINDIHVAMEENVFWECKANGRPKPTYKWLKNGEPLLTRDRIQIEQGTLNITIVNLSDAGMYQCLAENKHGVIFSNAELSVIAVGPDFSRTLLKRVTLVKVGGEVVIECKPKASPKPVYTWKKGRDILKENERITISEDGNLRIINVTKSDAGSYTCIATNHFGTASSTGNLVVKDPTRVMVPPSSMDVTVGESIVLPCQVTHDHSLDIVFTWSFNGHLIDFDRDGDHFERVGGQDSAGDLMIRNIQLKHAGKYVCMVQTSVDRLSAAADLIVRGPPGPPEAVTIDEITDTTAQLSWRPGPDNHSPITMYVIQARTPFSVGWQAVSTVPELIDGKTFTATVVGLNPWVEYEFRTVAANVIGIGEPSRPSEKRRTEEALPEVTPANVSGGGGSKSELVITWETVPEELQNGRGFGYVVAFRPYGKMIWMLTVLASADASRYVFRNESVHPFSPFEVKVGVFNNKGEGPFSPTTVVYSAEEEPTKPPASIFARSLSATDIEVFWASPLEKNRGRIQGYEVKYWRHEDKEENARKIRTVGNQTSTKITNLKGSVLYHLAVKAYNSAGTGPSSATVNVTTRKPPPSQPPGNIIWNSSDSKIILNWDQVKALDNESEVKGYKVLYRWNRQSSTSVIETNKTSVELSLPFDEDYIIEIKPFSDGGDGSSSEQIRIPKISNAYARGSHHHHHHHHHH
Protocol: (§1) ELISA test was performed on the monoclonal antibody hAb-1 prepared in Example 2. An ELISA plate was coated with 20 nM of antigens (human CNTN4-10×His or mouse CNTN4-10×His). For antibody binding, antibodies hAb-1 were serially diluted from a maximum of 1 μM to 0.0001 nM, thereby binding to the antigen. HRP conjugated anti-human kappa antibodies were used as a secondary antibody for antibody detection. Color was developed using ABTS, which is a color developing reagent, and the absorbance at 405 nm was measured.

mouse CNTN4-10×His = target: T2, mouse CNTN4-10×His (mouse, UniProt Q69Z26 19-1000); experiment: as above
T2 sequence: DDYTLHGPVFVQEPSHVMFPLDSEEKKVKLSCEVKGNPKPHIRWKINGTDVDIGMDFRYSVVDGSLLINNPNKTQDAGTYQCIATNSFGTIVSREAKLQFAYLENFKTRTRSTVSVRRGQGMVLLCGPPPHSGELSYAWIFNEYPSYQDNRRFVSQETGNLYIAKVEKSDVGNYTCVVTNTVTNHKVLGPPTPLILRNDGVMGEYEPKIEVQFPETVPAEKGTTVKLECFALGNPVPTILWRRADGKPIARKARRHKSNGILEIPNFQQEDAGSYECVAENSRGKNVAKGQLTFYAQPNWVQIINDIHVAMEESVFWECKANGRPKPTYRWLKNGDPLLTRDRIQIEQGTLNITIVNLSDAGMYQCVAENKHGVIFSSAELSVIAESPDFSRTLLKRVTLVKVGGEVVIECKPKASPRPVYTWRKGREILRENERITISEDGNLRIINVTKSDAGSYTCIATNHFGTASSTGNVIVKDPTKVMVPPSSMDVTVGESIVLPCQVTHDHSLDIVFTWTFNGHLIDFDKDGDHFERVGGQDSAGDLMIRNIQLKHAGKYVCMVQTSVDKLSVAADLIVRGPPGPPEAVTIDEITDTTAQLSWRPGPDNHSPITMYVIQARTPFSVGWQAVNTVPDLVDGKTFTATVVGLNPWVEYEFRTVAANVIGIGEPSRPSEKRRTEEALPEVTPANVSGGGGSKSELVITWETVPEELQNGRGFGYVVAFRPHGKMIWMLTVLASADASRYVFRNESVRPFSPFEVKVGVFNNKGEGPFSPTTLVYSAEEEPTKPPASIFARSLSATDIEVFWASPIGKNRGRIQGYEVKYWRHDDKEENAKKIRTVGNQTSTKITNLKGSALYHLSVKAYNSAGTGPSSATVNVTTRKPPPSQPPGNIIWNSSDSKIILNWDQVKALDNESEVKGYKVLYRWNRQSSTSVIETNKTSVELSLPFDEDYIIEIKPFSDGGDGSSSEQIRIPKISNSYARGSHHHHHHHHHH
Protocol: as §1

human CNTN4-10×His [2] = target: T1, human CNTN4-10×His; experiment: ELISA on coated human CNTN4-10×His, competitor 500 nM CNTN4 receptor (APP) co-incubated
Protocol: (§2) An ELISA plate was coated with 20 nM of antigens human CNTN4-10×His. For antibody binding, a mixture of antibodies hAb-1 diluted to a final concentration of 0 to 1,000 nM and human CNTN4 receptors (Amyloid precursor protein, APP) diluted to 0 or 500 nM was bound to the antigens. HRP conjugated anti-human kappa antibodies were used as a secondary antibody for antibody detection. Color was developed using ABTS, which is a color developing reagent, and the absorbance at 405 nm was measured.

human CNTN4-10×His [3] = target: T1, human CNTN4-10×His; experiment: ELISA on coated human CNTN4-10×His, co-incubated with 0 nM CNTN4 receptor (APP); 0 nM CNTN-4 receptor (co-incubation)
Protocol: as §2

[4] = target: T3, human CNTN4 recombinant protein (human, UniProt Q8IWV2 19-1000); experiment: SPR (CM5 chip), hAb-1 captured by anti-human IgG Fc, human CNTN4 400 nM to 0.78 nM as analyte
T3 construct: No tag is stated, so it is kept apart from human CNTN4-10×His, though it may be the same preparation; also called Human CNTN-4 protein
T3 sequence (looked up): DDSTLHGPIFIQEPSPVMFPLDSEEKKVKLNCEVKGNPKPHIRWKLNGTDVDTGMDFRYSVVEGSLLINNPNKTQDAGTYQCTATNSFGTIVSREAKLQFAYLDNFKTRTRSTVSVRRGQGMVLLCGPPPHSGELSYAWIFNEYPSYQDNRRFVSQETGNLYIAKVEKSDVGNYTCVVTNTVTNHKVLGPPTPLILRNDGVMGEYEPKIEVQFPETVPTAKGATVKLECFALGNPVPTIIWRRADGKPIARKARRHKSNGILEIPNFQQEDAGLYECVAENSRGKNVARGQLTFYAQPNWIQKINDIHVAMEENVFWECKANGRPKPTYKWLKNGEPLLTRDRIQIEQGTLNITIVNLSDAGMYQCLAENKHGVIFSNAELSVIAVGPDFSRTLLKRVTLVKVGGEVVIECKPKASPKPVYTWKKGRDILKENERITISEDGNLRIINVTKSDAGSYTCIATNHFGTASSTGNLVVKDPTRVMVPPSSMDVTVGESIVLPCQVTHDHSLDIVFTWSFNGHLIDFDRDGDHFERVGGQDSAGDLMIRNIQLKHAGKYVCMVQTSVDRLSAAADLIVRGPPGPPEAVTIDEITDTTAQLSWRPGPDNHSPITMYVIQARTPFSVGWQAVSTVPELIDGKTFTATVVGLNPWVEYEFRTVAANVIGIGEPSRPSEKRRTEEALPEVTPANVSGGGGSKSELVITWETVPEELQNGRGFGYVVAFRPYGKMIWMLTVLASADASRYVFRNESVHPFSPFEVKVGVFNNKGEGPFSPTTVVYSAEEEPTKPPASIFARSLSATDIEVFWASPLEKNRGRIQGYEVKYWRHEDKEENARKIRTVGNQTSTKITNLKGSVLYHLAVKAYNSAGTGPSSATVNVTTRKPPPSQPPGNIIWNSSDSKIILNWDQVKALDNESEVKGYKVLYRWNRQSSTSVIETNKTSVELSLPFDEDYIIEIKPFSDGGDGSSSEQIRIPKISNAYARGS
Protocol: SPR test was performed on the monoclonal antibody hAb-1 prepared in Example 2. More specifically, in order to bind anti-human IgG Fc (capture antibody) using amine coupling, CM5 chip was mounted, running buffer was allowed to flow, the chip was activated, and then capture antibody was attached thereto. […] to which capture antibody was not attached was deactivated using ethanolamine, and then regeneration was performed using 3M magnesium chloride to clear analytes except capture antibody. The hAb-1 prepared at a concentration of 0.05 μg/mL was allowed to flow for 30 seconds at a rate of 10 μL/min for binding. Thereafter, human CNTN4 (400 nM to 0.78 nM) prepared by sequential dilution as an antigen was allowed to flow at a rate of 30 μL/min for 3 minutes to be bound, and dissociation was performed for 5 minutes.
Then, in order to clear all analytes attached to the capture antibody, a regeneration solution (3M magnesium chloride) was allowed to flow at a rate of […] for 30 seconds, and regeneration was performed. For each concentration of antigen, binding of hAb-1, binding of antigen, dissociation, and regeneration were repeated in order.

EC50 (human CNTN4-10×His [1]): 0.17 nM
EC50 (mouse CNTN4-10×His): 0.12 nM
EC50 (human CNTN4-10×His [2]): 0.24 nM
EC50 (human CNTN4-10×His [3]): 0.17 nM
Kd [4]: 35.6 nM
B1: anti-CNTN4 IgG4-S228P monoclonal antibody hAb-1 (antibody, V domains shown)
VH: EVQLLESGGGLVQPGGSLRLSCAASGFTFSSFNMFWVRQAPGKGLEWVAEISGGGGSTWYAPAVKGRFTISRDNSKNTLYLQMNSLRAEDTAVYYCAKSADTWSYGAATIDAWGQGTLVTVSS
VL: ELTQDPAVSVALGQTVRITCSGSSGSYGWYQQKPGQAPVLVIYDNTNRPSGIPDRFSGSSSGNTASLTITGAQAEDEADYYCGGYDGSTDVFGGGTKLTVL
